In article PMC13462943:

B1: GLP methyltransferase domain (aa 1001-1266), wild type [human] / itself (parent)
chain: DRPSPVERIVSRDIARGYERIPIPCVNAVDSEPCPSNYKYVSQNCVTSPMNIDRNITHLQYCVCIDDCSSSNCMCGQLSMRCWYDKDGRLLPEFNMAEPPLIFECNHACSCWRNCRNRVVQNGLRARLQLYRTRDMGWGVRSLQDIPPGTFVCEYVGELISDSEADVREEDSYLFDLDNKDGEVYCIDARFYGNVSRFINHHCEPNLVPVRVFMAHQDLRFPRIAFFSTRLIEAGEQLGFDYGERFWDIKGKLFSCRCGSPKCRHS

Variants of: B1
Assay: native mass spectrometry (nESI-MS)
Settings: with itself; parent: 1; read off a plot
Variant chain 1 C73Y has a ratio to parent of 0.34.
